The values that follow come from patent US20230051715A1 (MABWELL THERAPEUTICS, published 2023).

The target of experiment [1] is T1, full-length human C1s (produced in house) (human, UniProt P09871 16-688).
T1 construct: Called full-length; Partly auto-cleaved at R422-I423 on blots; also called HuC1s; Hu C1s
T1 sequence: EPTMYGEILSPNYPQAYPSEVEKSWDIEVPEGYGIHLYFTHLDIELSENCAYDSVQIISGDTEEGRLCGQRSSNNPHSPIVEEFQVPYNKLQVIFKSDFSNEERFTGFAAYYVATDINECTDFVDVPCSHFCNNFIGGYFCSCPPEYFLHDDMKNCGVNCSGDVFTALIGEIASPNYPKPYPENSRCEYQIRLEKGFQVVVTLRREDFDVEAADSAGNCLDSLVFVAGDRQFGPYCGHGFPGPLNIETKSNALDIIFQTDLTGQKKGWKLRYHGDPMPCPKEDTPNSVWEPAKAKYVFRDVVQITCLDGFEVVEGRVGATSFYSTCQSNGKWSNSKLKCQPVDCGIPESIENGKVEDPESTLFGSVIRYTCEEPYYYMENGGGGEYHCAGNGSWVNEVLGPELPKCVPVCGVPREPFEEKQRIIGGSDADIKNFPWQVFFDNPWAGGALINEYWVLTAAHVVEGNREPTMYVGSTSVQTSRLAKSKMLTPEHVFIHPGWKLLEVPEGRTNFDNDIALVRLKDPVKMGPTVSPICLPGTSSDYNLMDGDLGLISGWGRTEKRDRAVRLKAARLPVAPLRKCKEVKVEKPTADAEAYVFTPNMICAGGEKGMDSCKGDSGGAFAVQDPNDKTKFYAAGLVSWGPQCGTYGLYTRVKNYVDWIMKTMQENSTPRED
Nature of the experiment: ELISA, plate coated with 200 ng/well HuC1s, OD450nm. On the procedure: The next morning, plates were blocked with SuperBlock T20 blocking buffer (Thermo Scientific 37536) for 1 h with gentle shaking. Then, various concentrations of anti-C1s antibodies diluted in SuperBlock T20 blocking buffer were added to the plates and incubated for 1 h with gentle shaking. Mouse IgG (Sigma-Aldrich I5381) and Human IgG1 (BioXCell BP0297) were used as negative controls. The plates were washed before incubating with HRP conjugated secondary antibodies diluted in SuperBlock T20 blocking buffer (goat anti-mouse IgG (H+L) cross-adsorbed secondary antibody HRP (Invitrogen G-21040) or goat anti-human IgG antibody, HRP conjugate (Millipore AP309P)) for 1 h with gentle shaking. At last, the plates were washed and color developed with ELISA liquid substrate (Sigma-Aldrich), followed by stopping the reaction with addition of the same volume of […] 1M H₂SO₄. Bound antibody was measured by absorbance at OD₄₅₀ₙₘ.
(In general: In an ELISA, binding on a coated surface is turned into a signal by an enzyme label.)

In experiment [2] the target is T2, human C1s mutant M10 (D283I & P285A) (human, UniProt P09871 16-688).
T2 construct: The entry is the mutant itself
T2 sequence: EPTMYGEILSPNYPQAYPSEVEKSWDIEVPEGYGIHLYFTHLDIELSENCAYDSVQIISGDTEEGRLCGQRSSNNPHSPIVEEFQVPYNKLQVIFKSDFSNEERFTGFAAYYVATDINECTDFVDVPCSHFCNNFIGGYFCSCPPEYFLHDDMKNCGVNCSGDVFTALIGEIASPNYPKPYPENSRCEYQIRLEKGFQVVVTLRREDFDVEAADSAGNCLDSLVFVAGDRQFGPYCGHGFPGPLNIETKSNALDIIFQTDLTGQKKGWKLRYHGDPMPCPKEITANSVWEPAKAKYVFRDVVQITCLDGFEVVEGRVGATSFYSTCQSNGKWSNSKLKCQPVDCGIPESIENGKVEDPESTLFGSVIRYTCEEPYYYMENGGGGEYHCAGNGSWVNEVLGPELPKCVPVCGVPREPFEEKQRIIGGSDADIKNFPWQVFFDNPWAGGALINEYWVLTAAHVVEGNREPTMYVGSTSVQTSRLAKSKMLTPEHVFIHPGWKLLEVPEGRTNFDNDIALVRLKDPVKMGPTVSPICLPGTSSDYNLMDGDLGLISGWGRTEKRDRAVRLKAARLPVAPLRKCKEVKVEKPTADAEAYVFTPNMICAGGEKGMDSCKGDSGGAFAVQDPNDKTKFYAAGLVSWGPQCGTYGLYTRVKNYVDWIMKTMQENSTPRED
Nature of the experiment: ELISA, plate coated with human C1s mutant M10: D283I, P285A, OD450nm. On the procedure:
ELISA was carried out by first coating 96-well plates with 200 ng/well of full-length or truncated C1s proteins overnight. The next morning, plates were blocked with SuperBlock T20 blocking buffer (Thermo Scientific 37536) for 1 h with gentle shaking. Then, various concentrations of anti-C1s antibodies diluted in SuperBlock T20 blocking buffer were added to the plates and incubated for 1 h with gentle shaking. Mouse IgG (Sigma-Aldrich 15381) and human IgG1 (BioXCell BP0297) were used as negative controls. The plates were washed before incubating with HRP conjugated secondary antibodies diluted in SuperBlock T20 blocking buffer (goat anti-mouse IgG (H+L) cross-adsorbed secondary antibody HRP (Invitrogen G-21040) or goat anti-human IgG antibody, HRP conjugate (Millipore AP309P)) for 1 h with gentle shaking. At last, the plates were washed and color developed with ELISA liquid HRP substrate (Sigma-Aldrich), followed by stopping the reaction with addition of 1M H₂SO₄ in the same volume as the ELISA liquid substrate. Bound antibody was measured by absorbance at OD₄₅₀ₙₘ.
Binding of anti-C1s antibodies to mutants M1-M20 of human C1s was measured by ELISA as described in Example 4, and results are shown in FIGS. 6B-6U. All anti-C1s humanized variants including hz2-7(H1L2), hz2-8(H1L2 G80A) and hz2-8(H1L2 G80A/T82A) maintained strong binding properties to the majority (16 out of 20) of C1s mutants including M1 (FIG. 6B), M2 (FIG. 6C), M3 (FIG. 6D). M4 (FIG. 6E), M7 (FIG. 6H), M8 (FIG. 6I), M10 (FIG. 6K), M11 (FIG. 6L), M12 (FIG. 6M), M13 (FIG. 6N), M15 (FIG. 6P), M16 (FIG. 6Q), M17 (FIG. 6R), M18 (FIG. 6S), M19 (FIG. 6T) and M20 (FIG. 6U).

What is called EC50 is the midpoint of the concentration-response curve. The low end stands for greater potency, the high end for weaker potency.

B1: Anti-C1s antibody 2-7 (antibody, human IgG1, kappa, V domains shown)
VH: EVKLEESGGGLVPPGGSMKLSCVASGFTFSNYFMNWVRQSPEKGLEWVAEIRLKFTNYATHYAESVEGRFTISRDDSKSSVYLQMNNLRAEDTGIYYCTRDYGSRNGYFDYWGQGTTLTVSS
VL: DIVMTQAAPSVPVTPGESVSISCRSSKSLLHSNGNTFLYWFLQRPGQSPQLLIYRMSNLASGVPDRFSGSGSGTAFTLRVSRVEAEDVGIYYCMQHLEYPYTFGGGTKLEIKT
notes: the HC/LC entries may hold it too; also called clone 2-7
As to B1, a half-maximal response in experiment [1] (EC50) required 6 ng/mL.

B2: Anti-C1s antibody hz2-7(H1L2) (antibody, V domains shown)
VH: EVQLLESGGGLVQPGGSLRLSCAASGFTFSNYFMNWVRQAPGKGLEWVSEIRLKFTNYATHYADSVKGRFTISRDDSKSTLYLQMNSLRAEDTAVYYCTRDYGSRNGYFDYWGQGTLVTVSS
VL: DIVMTQTPLSLPVTPGEPASISCRSSKSLLHSNGNTFLYWFLQKPGQSPQLLIYRMSNLASGVPDRFSGSGSGTDFTLKISRVEAEDVGVYYCMQHLEYPYTFGGGTKLEIKR
notes: Humanized, human IgG1 / kappa; also called hz2-7(1L2)
B2: the EC50 in experiment [1] and in experiment [2] was 6 ng/mL in each case.

B3: Anti-C1s antibody 2-8 (antibody, V domains shown)
VH: EVQLQQSGAELVRPGALVKLSCKASGFNIKEYYMHWVKQRPEQGLEWIGWIDPENGDTIYDPKFQGKASITADTSSNTAYLQLSSLTSEDTAVYYCARSRLFFAYWGQGTLVTVSA
VL: DIVMTQSHKFMSTSVGDRVSFTCKASQDVRTAVDWYQQKPGQSPKLLIYSASYRYTGVPDRFTGTGSGTDFTFTISSVQAEDLAVYFCQQQYTTPYTFGGGTKLEIKT
notes: the HC/LC entries may hold it too; also called clone 2-8
With B3, the EC50 in experiment [1] was found to be 5 ng/mL.

B4: Anti-C1s antibody hz2-8 (H1L2 G80A) (antibody, V domains shown)
VH: QVQLVQSGAEVKKPGASVKVSCKASGFNIKEYYMHWVRQAPEQGLEWMGWIDPENADTIYAQKFQGRVTITADTSTNTAYMELSSLRSEDTAVYYCARSRLFFAYWGQGTLVTVSS
VL: DIQMTQSPKSLSASVGDRVTITCRASQDVRTALDWYQQKPGQSPKLLIYSASYRYSGVPSRFSGSGSGTDFTLTISSLQPEDFATYYCQQQYTTPYTFGQGTKLEIKR
notes: Humanized variant with G80A in HC CDR2 (already in the entry), human IgG1 / kappa
Molecule B4 returned an EC50 in experiment [2] of 5 ng/mL.

B5: Anti-C1s antibody hz2-8 (H1L2 G80A/T82A) (antibody, V domains shown)
VH: QVQLVQSGAEVKKPGASVKVSCKASGFNIKEYYMHWVRQAPEQGLEWMGWIDPENADAIYAQKFQGRVTITADTSTNTAYMELSSLRSEDTAVYYCARSRLFFAYWGQGTLVTVSS
VL: DIQMTQSPKSLSASVGDRVTITCRASQDVRTALDWYQQKPGQSPKLLIYSASYRYSGVPSRFSGSGSGTDFTLTISSLQPEDFATYYCQQQYTTPYTFGQGTKLEIKR
notes: Humanized variant with G80A and T82A in HC CDR2 (already in the entry), human IgG1 / kappa
With B5, the EC50 in experiment [1] stood at 4 ng/mL; in experiment [2], 6 ng/mL.
